Source: patent US20200024354A1 (OSSIANIX, published 2020)

Tests used:
[1] = target: recombinant human BAFF-Fc (Sino Biological) (human) (UniProt Q9Y275); test: cell-based or functional assay
[2] = target: recombinant mouse BAFF (R&D Systems) (mouse, UniProt Q9WU72 127-309); test: cell-based or functional assay
[3] = target: T1, human BAFF (recombinant) (human, UniProt Q9Y275 134-285); test: ELISA on coated human BAFF (legend of FIG. 18; rounded form of 0.632 nM)
T1 construct: also called hBAFF; recombinant BAFF (Sino biologicals)
T1 sequence (Q9Y275 134-285 limits assumed): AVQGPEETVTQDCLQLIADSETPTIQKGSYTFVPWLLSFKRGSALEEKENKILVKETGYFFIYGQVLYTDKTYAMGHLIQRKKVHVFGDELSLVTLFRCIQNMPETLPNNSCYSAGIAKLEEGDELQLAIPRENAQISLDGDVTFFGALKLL
Description: Based on the results of Example 11, the A07 anti-BAFF molecule was reformatted as a mouse Fc fusion protein with effector function intact. The protein was expressed and purified as described above and EC50 binding to human BAFF was assessed by ELISA as previously described. […] Mice are then injected i.p. with 100 μg of A07-Fc, 5A7-Fc, or blank control (PBS) on day 0 and again on day 4, 8, and 12 before being be culled on day 15. B cell subset populations in the spleen are analysed by flow cytometry as described above and improvements in B cell depletion are anticipated.

[4] = target: T1, human BAFF (recombinant); test: ELISA on coated human BAFF
[5] = target: T2, recombinant human BAFF-Fc (Sino Biological) (human, UniProt Q9Y275 134-285); test: cell-based or functional assay
T2 sequence (Q9Y275 134-285): as the sequence (Q9Y275 134-285 limits assumed) above

[6] = target: T2, recombinant human BAFF-Fc (Sino …); test: blocking ELISA: periplasmic extract + 1.14 nM BAFF-Fc on coated BAFF-R extracellular domain, anti-human Fc-HRP
Description: The ability of selected BAFF-specific VNARs to prevent the binding of BAFF to its receptor (BAFF-R) was tested in a blocking ELISA format. Briefly, selected clones were grown in 96 deep-well plates and the periplasmic fraction was extracted as described above. Nunc Maxisorp 96-well plates were coated at 1 μg/mL with the BAFF-R extracellular domain (Peprotech) and blocked in PBS-0.1% Tween+2.5% milk. The periplasmic fraction was also pre-blocked in PBS-0.1% Tween-20+2.5% milk in the presence of 1.14 nM BAFF-Fc (Sino Biological) before being exposed to the BAFF-R coated surface. After washing in PBS-0.1% Tween-20, BAFF bound to its receptor was detected via its Fc moiety using a peroxidase-conjugated anti-human Fc (Sigma). Absorbance at 450 nm was recorded using an Envision multiwell reader (Perkin Elmer) (FIG. 8) and clones reducing the amount of BAFF bound to its receptor by more than 50% were selected as specific blockers.

Chain of recombinant mouse BAFF (R&D Systems) (Q9WU72 127-309 limits assumed): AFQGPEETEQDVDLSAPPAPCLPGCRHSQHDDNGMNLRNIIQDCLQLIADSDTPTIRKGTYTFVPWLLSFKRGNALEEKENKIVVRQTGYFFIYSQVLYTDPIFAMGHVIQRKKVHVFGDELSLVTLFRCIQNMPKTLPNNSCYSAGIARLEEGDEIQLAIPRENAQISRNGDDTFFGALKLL
Chain of recombinant human BAFF-Fc (Sino Biological) (human) (Q9Y275 134-285): as the sequence (Q9Y275 134-285 limits assumed) above

Molecule	IC50 (mouse), proliferation of mouse splenic B cells [2] [nM]	IC50 (human), proliferation of mouse splenic B cells [5] [nM]	also measured
BAFFr (positive control, Example 10) (from UniProt Q96RJ3 1-76) (receptor)	7.06		IC50 (human), proliferation of mouse splenic B cells [1]: 66.2 nM
A07 formatted as a mouse Fc fusion protein with effector function intact (Fc fusion, also called A07-mFc; not shown: mouse Fc with effector function) AQAAARVDQTPQTITKETGESLTINCVLRDSNCALSNLYWYRKKSGSTNEESISLGGRYVETVNSGSKSFSLRINDLTVEDSGTYRCKVQLPYDPLTKECILGRMDVYGDGTAVTVNAASGAHHHHHHGADYKDDDDK			EC50 [3]: ~0.6 nM; EC50 [4]: ~0.632 nM
B07 formatted as a human Fc fusion (Fc fusion, not shown: a dimerising Fc or GST) AQAAARVDQTPRSVTKETGESLTINCVLRDSICALSSTHWYRKKSGSTNEESISKGGRYVETVNSGSKSFSLRINDLTVEDSGTYRCKVHGGRSTGLCGDVLLAGDVYGGGTAVTVN	604	3.79	
ID2-101B08 (VNAR, Nurse shark VNAR single domain, monomer in periplasmic extract) VNAR: AARVDQTPQTITKETGESLTINCVLRDSNCALSSTLWYRTKSGSRNEESISKGGRYVETVNSGSKSFSLKINDLTVEDSGTYRCKVPRDLLLCKRPRARLPDVYGGGTAVTVNA			binding result [6]: binds
A07 formatted as a human Fc fusion (Fc fusion, not shown: a dimerising Fc or GST) AQAAARVDQTPQTITKETGESLTINCVLRDSNCALSNLYWYRKKSGSTNEESISLGGRYVETVNSGSKSFSLRINDLTVEDSGTYRCKVQLPYDPLTKECILGRMDVYGDGTAVTVN	1.95	2.48	
